Experimental data as given in paper PMC4850058, “TRIP6 antagonizes the recruitment of A20 and CYLD to TRAF6 to promote the LPA2 receptor-mediated TRAF6 activation” (Cell Discovery, 2016).

Biological target: T1, purified recombinant TRIP6 (UniProt Q15654 1-476)
T1 construct: TRIP6; source: purified recombinant protein
T1 sequence (looked up): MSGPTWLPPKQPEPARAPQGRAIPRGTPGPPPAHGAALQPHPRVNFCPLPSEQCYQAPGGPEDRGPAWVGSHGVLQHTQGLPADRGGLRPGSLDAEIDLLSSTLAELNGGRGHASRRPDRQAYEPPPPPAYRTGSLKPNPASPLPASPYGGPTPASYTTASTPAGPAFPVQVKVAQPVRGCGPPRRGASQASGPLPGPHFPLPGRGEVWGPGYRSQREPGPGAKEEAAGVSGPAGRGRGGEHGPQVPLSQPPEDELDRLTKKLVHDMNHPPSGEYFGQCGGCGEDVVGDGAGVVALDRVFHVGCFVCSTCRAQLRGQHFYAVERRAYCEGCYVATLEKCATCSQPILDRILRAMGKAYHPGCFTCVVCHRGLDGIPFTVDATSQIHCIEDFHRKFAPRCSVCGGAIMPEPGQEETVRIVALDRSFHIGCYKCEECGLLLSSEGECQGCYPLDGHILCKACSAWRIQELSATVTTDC
Test: pull-down; purified recombinant TRIP6 incubated with GST, GST-TRAF6 or GST-CT, 4 °C, 3 h; anti-TRIP6 immunoblot
Conditions: both partners purified

B1: GST-CT mutant containing residues 239–530 of TRAF6 (domain or fragment, UniProt P70196 239-530, looked up)
chain: PIPCTFSVFGCHEKMQRNHLARHLQENTQLHMRLLAQAVHNVNLALRPCDAASPSRGCRPEDPNYEETIKQLESRLVRQDHQIRELTAKMETQSMYVGELKRTIRTLEDKVAEMEAQQCNGIYIWKIGNFGMHLKSQEEERPVVIHSPGFYTGRPGYKLCMRLHLQLPTAQRCANYISLFVHTMQGEYDSHLPWPFQGTIRLTILDQSEALIRQNHEEVMDAKPELLAFQRPTIPRNPKGFGYVTFMHLEALRQGTFIKDDTLLVRCEVSTRFDMGGLRKEGFQPRSTDAGV
notes: TRAF6 carboxyl-terminal domain, residues 239-530; also called TRAF6-CT domain; carboxyl-terminal domain; source: purified recombinant GST-tagged protein (pGEX-6P3)
B1: binds.
